Assays:
[1] = LC-MS assay of GH3 conjugation of IAA with Asp or Glu; assay type: biochemical; conditions: for kcat (hrs−1) IAA-Asp: conjugation of IAA with Asp by recombinant GH3 protein, IAA-Asp product by LC-MS; for kcat (hrs−1) IAA-Glu: conjugation of IAA with Glu by recombinant GH3 protein, IAA-Glu product by LC-MS
Procedure, shortened: (§1)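 Rxn: 20 mM Tris-HCl pH 8.0, 5 mM MgCl2, 1 mM DTT, 5 mM ATP, 5 mM auxin, 5 mM Asp/Glu, 44–164 μg/mL purified His-GH3; 30° C., 3 h. MeOH quench, supernatant diluted 20×, LC-MS vs conjugate standards.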

[2] = LC-MS assay of GH3 conjugation of 2,4-D with Asp or Glu; assay type: biochemical; conditions: 5 mM 2,4-D substrate; for kcat (hrs−1) 2,4-D-Asp: conjugation of 2,4-D with Asp by recombinant GH3 protein, 2,4-D-Asp product by LC-MS; for kcat (hrs−1) 2,4-D-Glu: conjugation of 2,4-D with Glu by recombinant GH3 protein, 2,4-D-Glu product by LC-MS
Procedure, shortened: as §1

| Molecule | kcat (hrs−1) IAA-Asp [1] | kcat (hrs−1) IAA-Glu [1] | kcat (hrs−1) 2,4-D-Asp [2] | kcat (hrs−1) 2,4-D-Glu [2] |
| --- | --- | --- | --- | --- |
| SbEES01578: GH3 protein, accession EES01578 (protein, Sorghum bicolor) MPEAPTTKTTLPAGGFGPGAHREALEFIEHVTANAGKVQRRVLAEILTQNAPAEYLRRYGVPGGSADAVEAFRRVVPLVTYEGLQPDILRIASGDTSPILSGKPISEFLTSSGTSGGERKLMPTIADELDRRSLLYSLQMPVMSQSVPGLDKGKAMYLLFVKAESRTPGGLVARPVLTSYYRSRQFLERPHDPYTEYTSPNEAILCVDSYQSMYTQLLCGLVHRADVLRVGAVFASGFLRAVRFLEKHWPRLCRDIRTGTLDPEITDRAVRDAVVGRVLRGANPALADEIEAECAGPSWEGIIRRLWPRTKYIDVIVTGAMSQYIPTLEFYGGGLPLACTMYASSECYFGLNLKPMCKPGDVAYTLIPTMCYFEFLPLQCSDGKAEPSHRDLVGLVDVKLGHEYELVVTTYSGLYRYRVGDVLRVAGFKNEAPMFKFIRRQNVALSIDSDKTDETELHAAVSGAVQHLAPFGASLVEYTSYADAATIPGHYVLFWELRAGSTAVPASVFEDCCLSVEEALNSVYRQCRACDKSIGPLEIRVVSEGTFDKLMDYAISRGASINQYKAPRCVRPGPVVELLDARVQAKYFSPKCPKWSPGNKQWNAASNGDA | 4419.692 h⁻¹ | 162.572 h⁻¹ | 0.765 h⁻¹ | 0.250 h⁻¹ |
| SbEES19769: GH3 protein, accession EES19769 (protein, Sorghum bicolor) MPEAPVTTMREAATAAAAAAVPETHRELLEYIERVTAGAAQVQRRVLAEILAQNAPAEYLRRLGVAGDAPGAVDAFRRAAPLVTYEDILPDVLRIANGDTSPILSGKPIREFLTSSGTSGGERKLMPAIADEMDRRSLLYSLLMPVMSQAVPGLDKGKCMYLYFVKAESRTPGGHPARPVLTSFYRSRHFLERPHDPYTVYTSPDEAILCVDAYQSMYAQLLCGLVHRADVLRVGAVFASGFLRAIRFLEKHWQRLCRDIRTGTLDAEAVTDRAVRAAVEQRVLLRADPALADAVEAECARTSWQGIIRRVWPNTKYIDVIVTGAMAQYIPQLEFYGGGLPLTCTMYASSESYFGINLNPMCKPSEVAYTLIPTMCYFEFLPLPQPGDDDAGEPDQRDLVDLVDVKLGHEYELVVTTYSGLYRYRVGDVLRVAGFKNQAPMFNFLRRKNVVLSIDADKTDEAELHAAVSGAVQHLAPFGASLVEYTSYADAGTIPGHYVLFWELRLRAAAAAGATPTPVPASVFEDCCLAVEEALNSVYRQGRAADRSIGPLEIRVVSDGTFDKLMDYALARGASINQYKAPRCVRPGPVVELLDGRVQASYFSPKCPKWSPGVGKQWSSDAAAAAKKAAAGGSNGGGGGGGAVVVA | 903.124 h⁻¹ | 50.990 h⁻¹ | 18.287 h⁻¹ | 4.970 h⁻¹ |
| ZmACI46148: GH3 protein, accession ACI46148 (protein, Zea mays) MAVMAEVVSTTGAALRSPASQPLPAAVKNADAEKLQFIEEMTSNVDAVQERVLGEILARNAGTEYLAKYGLAAATTDRATFRAKVPMATYEDLQPYIRRIADGDRSPILSGHPVSEFLTSSGTSAGERKLMPTIEDELNRRQLLYSLQMPVMNLYVPGMDKGKALHFLFVKSETKTPGGLAARPVLTSYYKSNHFKNRPFDAYNNYTSPTAAILCADAFQSMYAQMLCGLCQRQDVLRVGAVFASGLLRAIRFLQLNWEQLAEDIEAGSLTPRVTDPSVREAVAGILRADPELAALVRSECSKGDWAGIITRIWPSTKYLDVIVTGAMAQYIPTLKYYSGGLPMACTMYASSECYFGLNLRPMCDPSEVSYTLMPNMCYFEFLPMDSAAASGGDASKLVDLARVEVGREYELVITTYAGLNRYRVGDVLQVTGFHNTAPQFRFVRRKNVLLSIESDKTDEAELQRAVERASALLRPHGAAVVEYTSQAYTKSIPGHYVIYWELLAKGPAGGAAVGEGTLERCCLEMEEALNTVYRQSRVADGSIGPLEIRVVRPGTFEELMDYAISRGASINQYKVPRCVTFPPIIELLDSRVVSSHFSPALPHWTPGQRSDSD | 869.016 h⁻¹ | 49.496 h⁻¹ | 2.278 h⁻¹ | 0.401 h⁻¹ |
| ZmACL52529: GH3 protein, accession ACL52529 (protein, Zea mays) MSTSHARVKSDSNNGRTRTCDDGGSSGTSGGERKLMPAIADEMDRRSLLYSLLMPVMSQAVPGLDRGRCMYLYFVKAESRTPGGHPARPVLTSFYRSRHFLERPHDPYTVHTSPDEAVLCVDAYQSMYAQLLCGLVHRADVLRVGAVFASGFLRAIRFLEKHWQRLCRDLRRGALGAEVTDRSVRAAVARVLRADPALADAVEAECARPSWQGIIRRVWPGTKYIDVIVTGAMAQYIPTLEFYGGGLPLTCTMYASSESYFGINLNPMCKPSEVAYTLIPTMCYFEFLPLPQPGPGGTDDADPDHRDLVDLVDVKLGHEYELVVTTYSGLYRYRVGDVLRVAGFKNQAPMFKFLRRKNVVLSIDSDKTDEAELHAAVSGAVQHLAPFGASLVEYTSYADAGTIPGHYVLFWELRLRAGDVPVPVPASVFEDCCLAVEEALNSVYRQGRAADRSIGPLEIRVVSDGTFDRLMDYALARGASINQYKVPRCVHPGPVVELLDGRVQASYVSPKCPKWSPGGGKQWSSDAAAKKPAAAAGSNNGGGAVVA | 0.000 h⁻¹ | 2.149 h⁻¹ | 0.000 h⁻¹ | 0.000 h⁻¹ |
| SbEES01517: GH3 protein, accession EES01517 (protein, Sorghum bicolor) MAPMATAAAAAAVGRVTALGVAACERDVEKLEFIEDKTKNFDAEQVRVLAEILARNNGAEYLRRHGMEGRTDRQAFKARVPVVTYEDLRPEIDRIANGDRSNIISSHPITEFLTSSGTSAGERKLMPTIEDELNRRQMLYSLLMPVMNLYVPGLDKGKGLYFLFIKSETKTPGGLPARPVLTSYYKSDHFKHRPYDPYNVYTSPTAAILCTDSFQSMYSQMLCGLVARTEVLRVGAVFASGLLRAIRFLQLHWKELAHDLRTGTLSARVVEPSIRDAVAEVLTKPDAGLADLVEAECGKDNWEGIITRVWPNTKYLDVIVTGAMAQYIPTLKYYSGGLPMACTMYASSECYFGLNLRPMCDPSEVSYTIMPNMGYFELLPHDPEDKPAVSSSSAASAMDHDRLLVDLADAEVGKEYELVITTYAGLCRYRVGDILHVTGFHNAAPQFRFVRRKNVLLSIDSDKTDEAELQSAVERASRLLAPYDARIVEYTSQADATTIPGHYVVYWELMVRDGGASPEPDVFERCCLEMEEALNAVYRQGRNGDAIGPLEIRVVRGGTFEEVMDYAISRGASINQYKAPRCVSFGPIIELLNSRVVSRHFSPACPTYSPHKK | 855.770 h⁻¹ | 80.034 h⁻¹ | 0.953 h⁻¹ | 0.426 h⁻¹ |
| ZmACL54563: GH3 protein, accession ACL54563 (protein, Zea mays) MPEAPVVTMRDTAAAAPPATHRDLLEYIERVTAGAAQVQRRVLSEILAQNAPAEYLRRLGVSGAAPGAVEAFRRAAPLVTYEDILPDVLRIANGDTSPILSGKPIREFLTSSGTSGGERKLMPAIADEMDRRSLLYSLLMPVMSQAVPGLDRGRCMYLYFVKAGSRTPGGHPARPVLTSFYRSRHFLERPHDPYTVHTSPDEAVLCVDAYQSMYAQLLCGLVHRADVLRVGAVFASGFLRAIRFLEKHWQRLCRDLRRGALGAEVTDRSVRAAVARVLRADPALADAVEAECARPSWQGIIRRVWPGTKYIDVIVTGAMAQYIPTLEFYGGGLPLTCTMYASSESYFGINLNPMCKPSEVAYTLIPTMCYFEFLPLPQPGPGGTDDADPDHRDLVDLVDVKLGHEYELVVTTYSGLYRYRVGDVLRVAGFKNQAPMFKFLRRKNVVLSIDSDKTDEAELHAAVSGAVQHLAPFGASLVEYTSYADAGTIPGHYVLFWELRLRAGDVPVPVPASVFEDCCLAVEEALNSVYRQGRAADRSIGPLEIRVVSDGTFDRLMDYALARGASINQYKVPRCVHPGPVVELLDGRVQASYVSPKCPKWSPGGGKQWSSDAAAKKPAAAAGSNNGGGAVVA | 522.629 h⁻¹ | 26.015 h⁻¹ | 3.255 h⁻¹ | 0.993 h⁻¹ |
| ZmACI46149: GH3 protein, accession ACI46149 (protein, Zea mays) MAVMAEVVSTTGAALRSPASQQPAAAGAAKGTDAEKLQFIEDMTSNVDAVQERVLGEILARNADTEYLAGRCGLAGATDRATFRAKVPMATYEDLQPYIRRIADGDRSPILSGHPVSEFLTSSGTSGGERKLMPTIEDELNRRQLLYSLQMPVMNLYVPGMDKGKALHFLFVKSETKTPGGLAARPVLTSYYKSNHFRNRPFDAYNNYTSPTAAILCADAFQSMYAQMVCGLCQRQDVLRVGAVFASGLLRAIRFLQLNWEQLADDIEAGSLTPRVTDPSVREAVAGILRPDPAVAELVRSECSGGDWAGIVTRIWPNTKYLDVIVTGAMAQYIPTLKHYSGGLPMACTMYASSECYFGLNLRPMCDPSEVSYTLMPNMCYFEFLPMGGAVDASQLVDLARVERGREYELVITTYAGLNRYRVGDVLQVTGFHNSAPQFRFVRRKNVLLSIESDKTDEAELQRAVERASALLRPHGAAVVEYTSQAYTKSIPGHYVVYWELLQAKGGAAVDGETLEGCCLEMEEALNAVYRQSRVADGSIGPLEIRVVRPGTFEELMDYAISRGASINQYKVPRCVTFPPIIELLDSRVVSSHLSPALPHWTAGQRSDSD | 684.072 h⁻¹ | 26.467 h⁻¹ | 2.892 h⁻¹ | 0.355 h⁻¹ |
